The source of these data is patent US20180155451A1 (published 2018).

B1: GpH7-A5/GpH7-B3 variant T335_15Y/GpL16-k0 (antibody, human IgG1, kappa)
heavy 1: not shown
heavy 2: not shown
light: DIVMTQSPLSLPVTPGEPASISCQASESLVHSNRNTYLHWYLQKPGQSPQLLIYKVSNRFSGVPDRFSGSGSGTDFTLKISRVEAEDVGVYYCSQNTHVPPTFGQGTKVEIERTVAAPSVFIFPPSDEQLKSGTASVVCLLNNFYPREAKVQWKVDNALQSGNSQESVTEQDSKDSTYSLSSTLTLSKADYEKHKVYACEVTHQGLSSPVTKSFNRGEC
notes: mutation in one H chain only; also called He Ab T335_15Y; T335Y
B2: GpH7-A5/GpH7-B3 variant V266_19Q/GpL16-k0 (antibody, human IgG1, kappa)
heavy 1: not shown
heavy 2: not shown
light: DIVMTQSPLSLPVTPGEPASISCQASESLVHSNRNTYLHWYLQKPGQSPQLLIYKVSNRFSGVPDRFSGSGSGTDFTLKISRVEAEDVGVYYCSQNTHVPPTFGQGTKVEIERTVAAPSVFIFPPSDEQLKSGTASVVCLLNNFYPREAKVQWKVDNALQSGNSQESVTEQDSKDSTYSLSSTLTLSKADYEKHKVYACEVTHQGLSSPVTKSFNRGEC
notes: mutation in one H chain only; also called He Ab V266_19Q; V266Q
B3: GpH7-A5/GpH7-B3 variant Y300_12R/GpL16-k0 (antibody, human IgG1, kappa)
heavy 1: not shown
heavy 2: not shown
light: DIVMTQSPLSLPVTPGEPASISCQASESLVHSNRNTYLHWYLQKPGQSPQLLIYKVSNRFSGVPDRFSGSGSGTDFTLKISRVEAEDVGVYYCSQNTHVPPTFGQGTKVEIERTVAAPSVFIFPPSDEQLKSGTASVVCLLNNFYPREAKVQWKVDNALQSGNSQESVTEQDSKDSTYSLSSTLTLSKADYEKHKVYACEVTHQGLSSPVTKSFNRGEC
notes: mutation in one H chain only; also called He Ab Y300_12R; Y300R
B4: GpH7-B3 variant K326_07I/GpL16-k0 (antibody, human IgG1, kappa)
heavy: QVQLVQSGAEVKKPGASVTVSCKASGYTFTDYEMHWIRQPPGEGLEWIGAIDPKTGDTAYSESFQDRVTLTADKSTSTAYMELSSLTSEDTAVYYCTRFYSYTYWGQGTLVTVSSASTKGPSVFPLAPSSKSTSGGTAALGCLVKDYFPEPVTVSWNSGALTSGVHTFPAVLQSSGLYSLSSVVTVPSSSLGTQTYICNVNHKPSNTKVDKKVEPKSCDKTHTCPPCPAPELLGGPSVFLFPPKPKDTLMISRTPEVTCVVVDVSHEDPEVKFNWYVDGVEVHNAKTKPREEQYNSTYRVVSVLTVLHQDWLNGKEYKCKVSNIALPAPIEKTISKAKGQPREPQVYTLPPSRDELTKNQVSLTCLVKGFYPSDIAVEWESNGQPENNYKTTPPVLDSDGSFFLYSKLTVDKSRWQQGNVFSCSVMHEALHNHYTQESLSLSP
light: DIVMTQSPLSLPVTPGEPASISCQASESLVHSNRNTYLHWYLQKPGQSPQLLIYKVSNRFSGVPDRFSGSGSGTDFTLKISRVEAEDVGVYYCSQNTHVPPTFGQGTKVEIERTVAAPSVFIFPPSDEQLKSGTASVVCLLNNFYPREAKVQWKVDNALQSGNSQESVTEQDSKDSTYSLSSTLTLSKADYEKHKVYACEVTHQGLSSPVTKSFNRGEC
notes: homodimerized; mutation in both H chains; also called Ho Ab K326_07I
B5: GpH7-B3 variant H268_01G/GpL16-k0 (antibody, human IgG1, kappa)
heavy: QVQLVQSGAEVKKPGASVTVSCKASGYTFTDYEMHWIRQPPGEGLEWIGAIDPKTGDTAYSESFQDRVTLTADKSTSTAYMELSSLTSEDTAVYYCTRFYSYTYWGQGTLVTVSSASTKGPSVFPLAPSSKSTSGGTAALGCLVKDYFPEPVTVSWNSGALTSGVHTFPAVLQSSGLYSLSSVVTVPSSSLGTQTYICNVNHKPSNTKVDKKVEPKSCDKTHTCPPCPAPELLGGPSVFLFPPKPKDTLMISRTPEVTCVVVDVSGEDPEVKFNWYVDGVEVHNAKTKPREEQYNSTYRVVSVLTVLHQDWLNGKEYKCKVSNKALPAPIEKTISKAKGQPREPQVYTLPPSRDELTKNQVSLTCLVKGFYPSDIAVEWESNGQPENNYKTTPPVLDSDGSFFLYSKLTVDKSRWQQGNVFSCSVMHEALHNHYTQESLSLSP
light: DIVMTQSPLSLPVTPGEPASISCQASESLVHSNRNTYLHWYLQKPGQSPQLLIYKVSNRFSGVPDRFSGSGSGTDFTLKISRVEAEDVGVYYCSQNTHVPPTFGQGTKVEIERTVAAPSVFIFPPSDEQLKSGTASVVCLLNNFYPREAKVQWKVDNALQSGNSQESVTEQDSKDSTYSLSSTLTLSKADYEKHKVYACEVTHQGLSSPVTKSFNRGEC
notes: homodimerized; mutation in both H chains; also called Ho Ab H268_01G
B6: GpH7-B3 variant G237_20W/GpL16-k0 (antibody, human IgG1, kappa)
heavy: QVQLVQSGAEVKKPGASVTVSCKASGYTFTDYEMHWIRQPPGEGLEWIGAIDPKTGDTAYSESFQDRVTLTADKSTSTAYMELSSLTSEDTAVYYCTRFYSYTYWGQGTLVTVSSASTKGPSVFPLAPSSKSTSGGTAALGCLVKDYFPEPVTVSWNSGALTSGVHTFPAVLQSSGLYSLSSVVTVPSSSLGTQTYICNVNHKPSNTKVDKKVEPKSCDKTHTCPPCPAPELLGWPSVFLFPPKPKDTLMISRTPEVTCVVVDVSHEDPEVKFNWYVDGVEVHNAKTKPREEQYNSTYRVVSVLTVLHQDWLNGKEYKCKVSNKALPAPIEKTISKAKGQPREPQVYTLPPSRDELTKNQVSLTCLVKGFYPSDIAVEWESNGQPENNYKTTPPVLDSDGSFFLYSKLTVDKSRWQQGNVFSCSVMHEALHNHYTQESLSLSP
light: DIVMTQSPLSLPVTPGEPASISCQASESLVHSNRNTYLHWYLQKPGQSPQLLIYKVSNRFSGVPDRFSGSGSGTDFTLKISRVEAEDVGVYYCSQNTHVPPTFGQGTKVEIERTVAAPSVFIFPPSDEQLKSGTASVVCLLNNFYPREAKVQWKVDNALQSGNSQESVTEQDSKDSTYSLSSTLTLSKADYEKHKVYACEVTHQGLSSPVTKSFNRGEC
notes: homodimerized; mutation in both H chains; also called Ho Ab G237_20W
B7: GpH7-B3 variant A327_10E/GpL16-k0 (antibody, human IgG1, kappa)
heavy: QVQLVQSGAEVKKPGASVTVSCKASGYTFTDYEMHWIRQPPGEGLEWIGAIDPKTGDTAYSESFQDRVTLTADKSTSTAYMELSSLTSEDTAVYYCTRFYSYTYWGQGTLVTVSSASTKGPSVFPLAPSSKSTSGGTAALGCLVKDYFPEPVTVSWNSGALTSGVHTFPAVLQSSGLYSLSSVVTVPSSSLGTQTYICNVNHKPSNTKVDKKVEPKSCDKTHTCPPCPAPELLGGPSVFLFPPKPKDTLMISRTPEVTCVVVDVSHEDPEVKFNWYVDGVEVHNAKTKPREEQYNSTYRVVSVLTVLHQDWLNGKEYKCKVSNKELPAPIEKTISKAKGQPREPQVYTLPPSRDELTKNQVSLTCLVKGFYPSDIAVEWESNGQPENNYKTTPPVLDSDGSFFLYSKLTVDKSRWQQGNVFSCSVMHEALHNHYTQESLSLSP
light: DIVMTQSPLSLPVTPGEPASISCQASESLVHSNRNTYLHWYLQKPGQSPQLLIYKVSNRFSGVPDRFSGSGSGTDFTLKISRVEAEDVGVYYCSQNTHVPPTFGQGTKVEIERTVAAPSVFIFPPSDEQLKSGTASVVCLLNNFYPREAKVQWKVDNALQSGNSQESVTEQDSKDSTYSLSSTLTLSKADYEKHKVYACEVTHQGLSSPVTKSFNRGEC
notes: homodimerized; mutation in both H chains; also called Ho Ab A327_10E
B8: GpH7-B3 variant G236_09D/GpL16-k0 (antibody, human IgG1, kappa)
heavy: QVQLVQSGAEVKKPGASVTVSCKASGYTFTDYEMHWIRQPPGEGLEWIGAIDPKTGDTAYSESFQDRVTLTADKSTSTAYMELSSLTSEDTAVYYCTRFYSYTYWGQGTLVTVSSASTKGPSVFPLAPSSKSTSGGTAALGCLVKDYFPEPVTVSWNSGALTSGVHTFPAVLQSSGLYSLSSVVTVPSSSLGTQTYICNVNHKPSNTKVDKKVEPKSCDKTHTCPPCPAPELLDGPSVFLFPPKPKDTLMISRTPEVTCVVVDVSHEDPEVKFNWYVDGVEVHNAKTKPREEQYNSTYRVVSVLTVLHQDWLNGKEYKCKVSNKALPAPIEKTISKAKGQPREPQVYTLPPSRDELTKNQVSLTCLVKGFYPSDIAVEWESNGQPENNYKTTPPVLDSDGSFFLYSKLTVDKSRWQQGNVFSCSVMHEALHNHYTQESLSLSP
light: DIVMTQSPLSLPVTPGEPASISCQASESLVHSNRNTYLHWYLQKPGQSPQLLIYKVSNRFSGVPDRFSGSGSGTDFTLKISRVEAEDVGVYYCSQNTHVPPTFGQGTKVEIERTVAAPSVFIFPPSDEQLKSGTASVVCLLNNFYPREAKVQWKVDNALQSGNSQESVTEQDSKDSTYSLSSTLTLSKADYEKHKVYACEVTHQGLSSPVTKSFNRGEC
notes: homodimerized; mutation in both H chains; also called Ho Ab G236_09D
B9: GpH7-B3 variant H268_10E/GpL16-k0 (antibody, human IgG1, kappa)
heavy: not shown
light: DIVMTQSPLSLPVTPGEPASISCQASESLVHSNRNTYLHWYLQKPGQSPQLLIYKVSNRFSGVPDRFSGSGSGTDFTLKISRVEAEDVGVYYCSQNTHVPPTFGQGTKVEIERTVAAPSVFIFPPSDEQLKSGTASVVCLLNNFYPREAKVQWKVDNALQSGNSQESVTEQDSKDSTYSLSSTLTLSKADYEKHKVYACEVTHQGLSSPVTKSFNRGEC
notes: homodimerized; mutation in both H chains; also called Ho Ab H268_10E
B10: GpH7-B3 variant G237_04F/GpL16-k0 (antibody, human IgG1, kappa)
heavy: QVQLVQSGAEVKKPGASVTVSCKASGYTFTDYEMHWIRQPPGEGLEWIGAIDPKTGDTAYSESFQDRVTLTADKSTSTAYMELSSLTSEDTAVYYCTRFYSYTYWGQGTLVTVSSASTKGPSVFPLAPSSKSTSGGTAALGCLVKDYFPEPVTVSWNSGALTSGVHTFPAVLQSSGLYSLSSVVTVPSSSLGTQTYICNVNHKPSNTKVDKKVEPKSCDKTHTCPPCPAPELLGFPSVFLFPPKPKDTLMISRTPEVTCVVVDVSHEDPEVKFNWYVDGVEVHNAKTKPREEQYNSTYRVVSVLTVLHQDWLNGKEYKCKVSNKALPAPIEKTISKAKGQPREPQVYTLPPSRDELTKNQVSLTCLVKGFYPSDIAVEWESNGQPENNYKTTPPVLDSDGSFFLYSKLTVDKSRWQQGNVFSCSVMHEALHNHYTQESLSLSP
light: DIVMTQSPLSLPVTPGEPASISCQASESLVHSNRNTYLHWYLQKPGQSPQLLIYKVSNRFSGVPDRFSGSGSGTDFTLKISRVEAEDVGVYYCSQNTHVPPTFGQGTKVEIERTVAAPSVFIFPPSDEQLKSGTASVVCLLNNFYPREAKVQWKVDNALQSGNSQESVTEQDSKDSTYSLSSTLTLSKADYEKHKVYACEVTHQGLSSPVTKSFNRGEC
notes: homodimerized; mutation in both H chains; also called Ho Ab G237_04F
B11: GpH7-B3 variant H268_18N/GpL16-k0 (antibody, human IgG1, kappa)
heavy: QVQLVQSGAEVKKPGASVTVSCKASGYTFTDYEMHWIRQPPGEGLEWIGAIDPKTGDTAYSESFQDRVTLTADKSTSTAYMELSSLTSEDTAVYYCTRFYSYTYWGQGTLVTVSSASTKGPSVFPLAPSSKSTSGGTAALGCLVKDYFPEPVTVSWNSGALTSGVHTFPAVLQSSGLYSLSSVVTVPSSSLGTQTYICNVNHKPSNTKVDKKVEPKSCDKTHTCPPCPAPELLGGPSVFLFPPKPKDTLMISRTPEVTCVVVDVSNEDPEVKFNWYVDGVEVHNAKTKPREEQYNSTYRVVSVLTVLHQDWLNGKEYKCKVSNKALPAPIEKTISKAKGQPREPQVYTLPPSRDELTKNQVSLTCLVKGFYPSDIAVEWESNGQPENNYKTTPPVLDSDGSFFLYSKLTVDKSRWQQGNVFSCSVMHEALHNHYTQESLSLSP
light: DIVMTQSPLSLPVTPGEPASISCQASESLVHSNRNTYLHWYLQKPGQSPQLLIYKVSNRFSGVPDRFSGSGSGTDFTLKISRVEAEDVGVYYCSQNTHVPPTFGQGTKVEIERTVAAPSVFIFPPSDEQLKSGTASVVCLLNNFYPREAKVQWKVDNALQSGNSQESVTEQDSKDSTYSLSSTLTLSKADYEKHKVYACEVTHQGLSSPVTKSFNRGEC
notes: homodimerized; mutation in both H chains; also called Ho Ab H268_18N
B12: GpH7-B3 variant G236_10E/GpL16-k0 (antibody, human IgG1, kappa)
heavy: not shown
light: DIVMTQSPLSLPVTPGEPASISCQASESLVHSNRNTYLHWYLQKPGQSPQLLIYKVSNRFSGVPDRFSGSGSGTDFTLKISRVEAEDVGVYYCSQNTHVPPTFGQGTKVEIERTVAAPSVFIFPPSDEQLKSGTASVVCLLNNFYPREAKVQWKVDNALQSGNSQESVTEQDSKDSTYSLSSTLTLSKADYEKHKVYACEVTHQGLSSPVTKSFNRGEC
notes: homodimerized; mutation in both H chains; also called Ho Ab G236_10E
B13: GpH7-B3 variant H268_09D/GpL16-k0 (antibody, human IgG1, kappa)
heavy: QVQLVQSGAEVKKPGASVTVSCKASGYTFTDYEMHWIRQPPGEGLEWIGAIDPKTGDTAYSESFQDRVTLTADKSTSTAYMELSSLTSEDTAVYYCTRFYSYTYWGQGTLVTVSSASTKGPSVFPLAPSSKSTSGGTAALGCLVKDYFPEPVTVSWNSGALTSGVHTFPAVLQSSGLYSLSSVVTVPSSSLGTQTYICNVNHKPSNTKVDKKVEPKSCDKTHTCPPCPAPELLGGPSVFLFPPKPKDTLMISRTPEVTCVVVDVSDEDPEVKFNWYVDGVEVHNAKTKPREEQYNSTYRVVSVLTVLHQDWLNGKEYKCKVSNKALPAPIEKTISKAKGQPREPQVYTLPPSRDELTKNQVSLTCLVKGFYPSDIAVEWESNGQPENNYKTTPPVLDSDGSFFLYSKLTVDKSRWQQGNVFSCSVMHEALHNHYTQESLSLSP
light: DIVMTQSPLSLPVTPGEPASISCQASESLVHSNRNTYLHWYLQKPGQSPQLLIYKVSNRFSGVPDRFSGSGSGTDFTLKISRVEAEDVGVYYCSQNTHVPPTFGQGTKVEIERTVAAPSVFIFPPSDEQLKSGTASVVCLLNNFYPREAKVQWKVDNALQSGNSQESVTEQDSKDSTYSLSSTLTLSKADYEKHKVYACEVTHQGLSSPVTKSFNRGEC
notes: homodimerized; mutation in both H chains; also called Ho Ab H268_09D
B14: GpH7-B3 variant H268_13S/GpL16-k0 (antibody, human IgG1, kappa)
heavy: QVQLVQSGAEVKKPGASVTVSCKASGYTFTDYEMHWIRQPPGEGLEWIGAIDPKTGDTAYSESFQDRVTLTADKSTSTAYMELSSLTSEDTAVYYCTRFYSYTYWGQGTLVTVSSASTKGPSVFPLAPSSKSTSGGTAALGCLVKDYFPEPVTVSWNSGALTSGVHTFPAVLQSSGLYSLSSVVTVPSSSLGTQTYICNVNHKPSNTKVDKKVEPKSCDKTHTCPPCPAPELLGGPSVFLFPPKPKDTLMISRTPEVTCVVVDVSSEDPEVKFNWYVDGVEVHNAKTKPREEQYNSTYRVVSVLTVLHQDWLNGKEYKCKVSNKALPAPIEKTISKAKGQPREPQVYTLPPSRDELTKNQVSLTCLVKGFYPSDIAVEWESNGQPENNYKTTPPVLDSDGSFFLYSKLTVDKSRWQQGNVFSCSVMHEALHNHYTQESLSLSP
light: DIVMTQSPLSLPVTPGEPASISCQASESLVHSNRNTYLHWYLQKPGQSPQLLIYKVSNRFSGVPDRFSGSGSGTDFTLKISRVEAEDVGVYYCSQNTHVPPTFGQGTKVEIERTVAAPSVFIFPPSDEQLKSGTASVVCLLNNFYPREAKVQWKVDNALQSGNSQESVTEQDSKDSTYSLSSTLTLSKADYEKHKVYACEVTHQGLSSPVTKSFNRGEC
notes: homodimerized; mutation in both H chains; also called Ho Ab H268_13S
B15: GpH7-B3 variant A330_01G/GpL16-k0 (antibody, human IgG1, kappa)
heavy: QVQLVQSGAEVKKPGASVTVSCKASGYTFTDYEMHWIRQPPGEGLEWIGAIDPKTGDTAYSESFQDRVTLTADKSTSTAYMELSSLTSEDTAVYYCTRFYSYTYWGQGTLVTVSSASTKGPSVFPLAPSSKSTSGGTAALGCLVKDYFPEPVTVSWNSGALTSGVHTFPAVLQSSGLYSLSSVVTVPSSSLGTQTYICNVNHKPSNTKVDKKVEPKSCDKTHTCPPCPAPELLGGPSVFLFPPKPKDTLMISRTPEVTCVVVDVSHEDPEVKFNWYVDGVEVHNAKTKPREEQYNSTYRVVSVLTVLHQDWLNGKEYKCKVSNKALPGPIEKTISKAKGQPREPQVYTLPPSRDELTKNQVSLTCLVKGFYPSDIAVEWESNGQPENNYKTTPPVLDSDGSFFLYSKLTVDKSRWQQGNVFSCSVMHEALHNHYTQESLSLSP
light: DIVMTQSPLSLPVTPGEPASISCQASESLVHSNRNTYLHWYLQKPGQSPQLLIYKVSNRFSGVPDRFSGSGSGTDFTLKISRVEAEDVGVYYCSQNTHVPPTFGQGTKVEIERTVAAPSVFIFPPSDEQLKSGTASVVCLLNNFYPREAKVQWKVDNALQSGNSQESVTEQDSKDSTYSLSSTLTLSKADYEKHKVYACEVTHQGLSSPVTKSFNRGEC
notes: homodimerized; mutation in both H chains; also called Ho Ab A330_01G
B16: GpH7-B3 variant A327_09D/GpL16-k0 (antibody, human IgG1, kappa)
heavy: not shown
light: DIVMTQSPLSLPVTPGEPASISCQASESLVHSNRNTYLHWYLQKPGQSPQLLIYKVSNRFSGVPDRFSGSGSGTDFTLKISRVEAEDVGVYYCSQNTHVPPTFGQGTKVEIERTVAAPSVFIFPPSDEQLKSGTASVVCLLNNFYPREAKVQWKVDNALQSGNSQESVTEQDSKDSTYSLSSTLTLSKADYEKHKVYACEVTHQGLSSPVTKSFNRGEC
notes: homodimerized; mutation in both H chains; also called Ho Ab A327_09D

One experiment deals with T1, FcγRIa extracellular domain with C-terminal His tag (human, UniProt P12314 16-292).
T1 construct: extracellular domain; also called FcgRI; CD64; not shown: His tag at the C terminus
T1 sequence (P12314 16-292): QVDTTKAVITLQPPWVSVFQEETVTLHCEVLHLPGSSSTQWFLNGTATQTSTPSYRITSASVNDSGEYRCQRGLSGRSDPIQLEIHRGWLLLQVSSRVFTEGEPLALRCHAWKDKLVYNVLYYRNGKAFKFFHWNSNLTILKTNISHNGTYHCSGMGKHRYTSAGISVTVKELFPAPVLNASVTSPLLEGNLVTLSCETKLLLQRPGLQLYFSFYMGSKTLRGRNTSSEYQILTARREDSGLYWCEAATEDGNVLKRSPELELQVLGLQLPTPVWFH
In words: SPR Biacore, relative FcγRIa binding vs GpH7-A5/GpH7-B3/GpL16-k0. In general terms: In SPR one partner is held on a chip, and binding of the other changes the refractive index at the surface.
Take B1: the He/Con_1a is 107 % of HeCon Ab (=100).
On the same count and under the same terms, for B2 the value was 100 % of HeCon Ab (=100); for B3, 105 % of HeCon Ab (=100).

In the next experiment the target is T2, FcγRIIb extracellular domain with C-terminal His tag (human, UniProt P31994 43-217).
T2 construct: extracellular domain; expressed in FreeStyle293 cells; analyte in the Biacore assay; also called FcgRIIb; 2b; not shown: His tag at the C terminus
T2 sequence (looked up): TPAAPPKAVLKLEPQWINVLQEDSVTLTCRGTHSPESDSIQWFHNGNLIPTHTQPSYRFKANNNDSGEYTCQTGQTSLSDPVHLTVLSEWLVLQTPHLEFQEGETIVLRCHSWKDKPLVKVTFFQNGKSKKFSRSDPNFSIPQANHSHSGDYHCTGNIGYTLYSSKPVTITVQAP
In words: SPR (Biacore), captured antibody, FcγRIIb analyte; binding relative to GpH7-B3/GpL16-k0 = 100.
Take B4: the Ho/Con_2b is 170 % of control.
Same read-out and setting: for B5 the value was 158 % of control; for B6, 166 % of control.
Turning to B7, the Ho/Con_2b was 148 % of control.
The same measure, in the same setting: the same measure for B8: 207 % of control.
Take B9: the Ho/Con_2b is 275 % of control.
With B10, the Ho/Con_2b is 140 % of control.
The same measure, in the same setting: the same measure for B11: 179 % of control.
Still for that read-out and setting: the same measure for B12: 114 % of control; for B13: 298 % of control.
Still for that read-out and setting: for B14 the value was 186 % of control.
As for B15, the Ho/Con_2b is 102 % of control.
In the case of B16, the Ho/Con_2b is 175 % of control.
